Measurements from patent US10925971B2, “Methods of treating PRLR positive breast cancer” (Regeneron Pharmaceuticals, Inc., priority 2016, dated 2021).

T1: mouse PRLR on HEK293/mPRLR cells (Mus musculus, UniProt Q08501)
T1 construct: HA; expressed in transfected cells; host or cells: HEK293
T1 sequence (Q08501 20-608): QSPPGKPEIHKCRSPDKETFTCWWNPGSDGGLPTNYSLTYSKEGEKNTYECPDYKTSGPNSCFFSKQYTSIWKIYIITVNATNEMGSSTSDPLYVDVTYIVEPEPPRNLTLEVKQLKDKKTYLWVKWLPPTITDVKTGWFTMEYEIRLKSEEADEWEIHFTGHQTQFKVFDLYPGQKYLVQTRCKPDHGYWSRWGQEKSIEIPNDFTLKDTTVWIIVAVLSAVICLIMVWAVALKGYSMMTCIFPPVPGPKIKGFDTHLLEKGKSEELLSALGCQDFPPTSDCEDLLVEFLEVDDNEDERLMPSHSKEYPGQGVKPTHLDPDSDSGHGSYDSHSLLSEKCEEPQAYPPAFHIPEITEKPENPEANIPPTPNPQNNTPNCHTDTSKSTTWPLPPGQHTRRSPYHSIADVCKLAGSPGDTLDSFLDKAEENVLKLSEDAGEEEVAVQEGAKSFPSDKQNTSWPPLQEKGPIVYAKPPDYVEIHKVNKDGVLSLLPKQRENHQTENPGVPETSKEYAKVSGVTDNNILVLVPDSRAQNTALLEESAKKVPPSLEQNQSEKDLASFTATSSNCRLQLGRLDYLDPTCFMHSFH

T2: monkey PRLR on HEK293/mfPRLR cells (Macaca fascicularis, UniProt A0A2K5WXK1)
T2 construct: HA; expressed in transfected cells; host or cells: HEK293
T2 sequence (A0A2K5WXK1 25-619): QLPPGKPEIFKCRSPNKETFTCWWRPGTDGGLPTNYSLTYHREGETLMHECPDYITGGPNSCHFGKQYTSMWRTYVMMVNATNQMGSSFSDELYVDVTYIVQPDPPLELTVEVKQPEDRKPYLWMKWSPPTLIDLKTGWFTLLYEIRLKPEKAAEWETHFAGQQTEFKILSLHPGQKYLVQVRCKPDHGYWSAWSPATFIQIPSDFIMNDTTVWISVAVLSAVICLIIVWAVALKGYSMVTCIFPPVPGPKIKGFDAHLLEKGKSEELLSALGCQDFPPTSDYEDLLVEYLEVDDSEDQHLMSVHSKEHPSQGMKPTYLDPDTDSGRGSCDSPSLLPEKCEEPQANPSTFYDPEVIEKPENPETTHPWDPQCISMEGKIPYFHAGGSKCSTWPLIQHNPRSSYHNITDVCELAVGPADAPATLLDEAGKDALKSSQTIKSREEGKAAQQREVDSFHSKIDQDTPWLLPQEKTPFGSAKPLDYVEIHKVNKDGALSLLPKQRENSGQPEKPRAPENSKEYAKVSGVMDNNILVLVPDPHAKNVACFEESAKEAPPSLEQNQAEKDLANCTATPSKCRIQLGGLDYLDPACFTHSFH

T3: human PRLR on HEK293/hPRLR cells (Homo sapiens, UniProt P16471)
T3 construct: HA; expressed in transfected cells; host or cells: HEK293
T3 sequence (P16471 25-622): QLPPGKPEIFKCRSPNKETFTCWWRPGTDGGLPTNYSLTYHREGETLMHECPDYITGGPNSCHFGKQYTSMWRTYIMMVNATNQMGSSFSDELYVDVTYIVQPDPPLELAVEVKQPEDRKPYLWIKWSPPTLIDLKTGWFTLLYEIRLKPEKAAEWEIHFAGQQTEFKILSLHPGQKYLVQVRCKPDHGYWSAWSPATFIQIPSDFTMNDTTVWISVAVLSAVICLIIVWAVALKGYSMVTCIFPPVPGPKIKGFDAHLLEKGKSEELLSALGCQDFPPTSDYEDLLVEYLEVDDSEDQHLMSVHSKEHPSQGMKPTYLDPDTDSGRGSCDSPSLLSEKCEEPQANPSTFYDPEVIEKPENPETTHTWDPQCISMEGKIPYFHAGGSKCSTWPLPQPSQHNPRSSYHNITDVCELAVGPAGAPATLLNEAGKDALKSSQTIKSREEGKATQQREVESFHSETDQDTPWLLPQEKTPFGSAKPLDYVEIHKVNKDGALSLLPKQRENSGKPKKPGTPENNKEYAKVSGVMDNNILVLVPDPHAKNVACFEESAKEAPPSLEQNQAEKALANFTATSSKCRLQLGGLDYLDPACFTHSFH


Columns and labels:
Assay in all cases: FACS cell surface binding
[1] = target: T1, mouse PRLR on HEK293/mPRLR cells
Summary of the method: (§1)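 Flow cytometry: 1×10^5 cells/sample; primary Ab 10 μg/ml, 30 min on ice; 2 washes; PE anti-human 2° 10 μg/ml, 30 min on ice. Cells were HEK293 stably expressing HA-tagged PRLR of the given species, or untransfected HEK293. Readout was MFI fold over isotype.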

[2] = target: T2, monkey PRLR on HEK293/mfPRLR cells
Summary of the method: as §1

[3] = target: T3, human PRLR on HEK293/hPRLR cells
Summary of the method: as §1

FACS Cell Binding [1] [Fold Above Background] | FACS Cell Binding [2] [Fold Above Background] | FACS Cell Binding [3] [Fold Above Background] | Molecule
2 | 29 | 37 | H1H6953N: anti-PRLR antibody, human IgG1 Fc form of H1M6953N of Table 1; HCVR/LCVR SEQ ID NOs 274/282 (antibody, V domains shown) VH: EVQLLESGGGLVQPGGTLRLSCAASGFTFSAYAMSWVRQAPGKGLEWVSSINVRAGDTYYADSVKGRFTISRDNSKNTLFLLMNSLRAEDTAAYYCAKARYSSNWGFDFWGQGTLVTVSS VL: DIVMTQSPDSLTVSLGARTTINCQSSQTILHSSNNHNYLAWYQQKPGLPPKLLIYWSSTRESGVPDRFSGSGSGTDFTLTISSLQAEDVAIYYCQQYSNTPYTFGQGTKLEIN
1 | 29 | 38 | H1H6975N: anti-PRLR antibody, human IgG1 Fc form of H2M6975N of Table 1; HCVR/LCVR SEQ ID NOs 370/378 (antibody, V domains shown, human IgG1 Fc) VH: EVHLVESGGGLVQPGGSLRLSCAASGFTFSSYEMNWVRQTPGKGLEWISHISSRSVIIYYADSVKGRFTISRDNAKNSLFLQMNSLRAEDTAVYFCAGITIFGIPEYWGQGTLVTVSS VL: EIVLTQSPATLSLSPGERATLSCRASQSVSSYFAWYQQKPGQAPRLLIYDASSRATGIPTRFSGSGSGTDFTLTISSLEPEDFAVYYCQQRSSWPITFGQGTRLEIK
2 | 25 | 1 | H1H6797P: fully human anti-PRLR antibody, human IgG1 Fc; HCVR/LCVR SEQ ID NOs 178/186 (antibody, V domains shown) VH: EVQLVESGGGLVQPGGSLRLSCIVSGFTFSGSWMSWVRQLPGKGLEWVANIKEDGSDSYYVDSVEGRFTISRDNAKSSLYLQMNSLRVDDTAVYFCARARTVPLHYWGQGTLVTVSS VL: DIQMTQSPSTLSASVGDRVTITCRASQSINIWLAWYQQKPGKAPKLLIYRASYLESGVPSSFAGGGSGTEFTLTISSLQPDDFGTYYCQHYNSYPFTFGQGTKLEIK

Second part, the molecule before the results:

Molecule | FACS Cell Binding [1] [Fold Above Background] | FACS Cell Binding [2] [Fold Above Background] | FACS Cell Binding [3] [Fold Above Background]
H1H6782P: fully human anti-PRLR antibody, non-blocking; HCVR/LCVR SEQ ID NOs 66/74 (antibody, V domains shown) VH: EVQLVESGGGLVQPGRSLRLSCAASGFTFDDYAMHWVRQAPGKGLEWVSGIIWNSGHIGYGDSVKGRFTISRDNAKKSLYLQMNSLRAEDTALYYCARDSGRYQSYFDYWGQGTLVTVSS VL: DIQMTQSPSTLSASVGDRVTITCRASHIISSWLAWYQQKPGKAPKVLIFKASSLESGVPSRFSGSGSGTEFTLTISSLQPDDFATYYCQQYNTYSRTFGQGTKVEIK | 4 | 32 | 41
H1H6765P: fully human anti-PRLR antibody, human IgG1 Fc; HCVR/LCVR SEQ ID NOs 18/26 (antibody, V domains shown) VH: EVQLVESGGGVVRPGGSLRLSCVGSGFSFDDHGMNWVRQGPGKGLEWVSGFNWNGGSTNYAESVKGRFTISRDNARNSLFLQMNSLRAEDTALYYCVRGRSGWFNDAFDVWGPGTMVTVSS VL: EIVLTQSPGTLSLSPGERATLSCRASQTINSNYLAWYRQKPGQTPRLLIYGTSSRATGIPDRFSGSGSGTDFSLTISRLEPEDFAVFYCQQYAGLPTFGPGTKVDIK | 1 | 27 | 38
H1H6795P: fully human anti-PRLR antibody, human IgG1 Fc; HCVR/LCVR SEQ ID NOs 162/170 (antibody, V domains shown) VH: QVQLVQSGAEVKKPGASVKVSCKASGYTFGTSGITWVRQAPGQGLEWMGWSSAYNGKTDYAQKFQDRVTMTTDTSTTTGYMEMRSLTSDDTAVYYCTTVVRRPFDFWGQGTLVTVSS VL: DIQMTQSPSSLSASVGDRVTITCRASQDINNFLAWFQQKPGKAPKSLIYAASSLQSGVPSKFSGGGSGTDFALTISSLQPEDFATYYCQQYSSYPITFGQGTRLEIK | 1 | 22 | 1
H1H6774P: fully human anti-PRLR antibody, human IgG1 Fc; HCVR/LCVR SEQ ID NOs 34/42 (antibody, V domains shown) VH: EVQLVESGGGLAQPGGSLRLSCVASGFTFSTYWMSWVRQAPGKGLDWVGNIKQDGSEQNYVDSVRGRFTISRDNAKNSLFLQMNSLRAEDTGVYYCATLLTKGDYWGQGTLVTVSS VL: DIQMTQSPSSLSASVGDSVTITCRASQDISNYLDWFQQKPGKAPKSLIYAASILQGGVPSRFSGSGYGTDFTLTISSLQPEDFATYYCRQYKTYPFTFGPGTKVDIK | 1 | 29 | 1
H1H6958N2: anti-PRLR antibody, receptor blocking, human IgG1 Fc form of H2M6958N2 of Table 1; HCVR/LCVR SEQ ID NOs 290/298 (antibody, V domains shown) VH: QVQLVESGGGVVQPGRSLRLSCGASGFTFRNYGMQWVRQGPGKGLEWVTLISFDGNDKYYADSVKGRFTISRDNSKNTLFLQMNSLRTEDTAVYYCARGGDFDYWGQGTLVTVSS VL: DIQMTQSPSSLSASVGDRVTITCRASQDIRKDLGWYQQKPGKAPKRLIYAASSLHSGVPSRFSGSGSGTEFTLTISSLQPEDFATYYCLQHNSYPMYTFGQGTKLEIK | 1 | 30 | 35
